Results: the RNAGym collection of RNA variant scans (doi:10.1021/acssynbio.7b00057)

B1: Pistol ribozyme (parent)
chain: GGGUCGUUGUUCCAUAAUCGCGUGGAUAUGGCACGCAAGUUUCUACCGGGCACCGUAAAUGUCCGACUGGAGCCGUUCGGGCGGCUAUAAACAGACCUCAGGCCCGAAGCGUGGCGGCACCUGCCGCCGGUGGUAAAAAAGAUCGGAAGAGCACACGUCU

Variants of: B1
Assay: aptazyme ON/OFF ratio, guanine; higher = stronger switching; co-transcriptional cleavage with and without guanine

Compared with U7C U8C U10C U11G C12A, U7C U8C U10A U11G C12A C13G is lower in “aptazyme ON/OFF ratio” value: 1.38 for the first, 1.11 for the second.

First: U7C U8C U10A U11G C12A C13U
Second: U7C U8C U10A U11G C12A C13A
The “aptazyme ON/OFF ratio” value of the first is higher: 1.12 for the first, 1.06 for the second.

Compared with U7C U8C G9U U11G C12U C13A, U7C U8C G9U U11G C12U C13U is lower in “aptazyme ON/OFF ratio” value: 1.1 for the first, 1.09 for the second.

First: U7C U8C G9U U11G C12U C13G
Second: U7C U8C G9U U10G U11G C12G C13G
The “aptazyme ON/OFF ratio” value of the first is higher: 1.07 for the first, 1.06 for the second.

Compared with U7C U8C G9U U10G U11G C12G C13U, U7C U8C G9U U10G U11G C12G C13A is higher in “aptazyme ON/OFF ratio” value: 1.06 for the first, 1.1 for the second.

U7C U8C U10A U11G C13U and U7C U8C U10A U11G C13G are the same in “aptazyme ON/OFF ratio” value: 1.18 for the first, 1.18 for the second.

First: U7C U8C U10A U11G C13A
Second: U7C U8C U10G U11C C12G
The “aptazyme ON/OFF ratio” value of the first is lower: 1.25 for the first, 1.4 for the second.

Going from U7C U8C U10G U11C C12U to U7C U8C U10G U11C C12A, the “aptazyme ON/OFF ratio” value rises from 1.22 to 1.41.

U7C U8C G9U U10C U11C C12U C13A and U7C U8C G9U U10C U11C C12U C13U are the same in “aptazyme ON/OFF ratio” value: 1.08 for the first, 1.08 for the second.

Going from U7C U8C G9U U10C U11C C12U C13G to U7C U8C G9U U10G U11G C12A C13A, the “aptazyme ON/OFF ratio” value falls from 1.1 to 1.01.

Going from U7C U8C G9U U10G U11G C12A C13U to U7C U8C G9U U10G U11G C12A C13G, the “aptazyme ON/OFF ratio” value falls from 1.1 to 1.09.

First: U7C U8C U10C C12A
Second: U7C U8C U10C C12G
The “aptazyme ON/OFF ratio” value of the first is higher: 1.39 for the first, 1.16 for the second.

First: U7C U8C U10C C12U
Second: U7C U8C G9U U10C U11G C12A C13A
The “aptazyme ON/OFF ratio” value of the first is higher: 1.36 for the first, 1.11 for the second.

Compared with U7C U8C G9U U10C U11G C12A C13G, U7C U8C G9U U10C U11G C12A C13U is higher in “aptazyme ON/OFF ratio” value: 1.11 for the first, 1.12 for the second.

Going from U7C U8C U10G C12U C13G to U7C U8C U10G C12U C13U, the “aptazyme ON/OFF ratio” value rises from 1.1 to 1.13.

U7C U8C U10G C12U C13A and U7C U8C G9U U10C U11G C12G C13U are the same in “aptazyme ON/OFF ratio” value: 1.08 for the first, 1.08 for the second.

Compared with U7C U8C G9U U10C U11G C12G C13A, U7C U8C G9U U10C U11G C12G C13G is lower in “aptazyme ON/OFF ratio” value: 1.14 for the first, 1.09 for the second.

Compared with U7C U8C U10G U11C C13G, U7C U8C U10G U11C C13A is higher in “aptazyme ON/OFF ratio” value: 1.16 for the first, 1.37 for the second.

Going from U7C U8C U10C U11A C12A C13U to U7C U8C U10C U11A C12A C13G, the “aptazyme ON/OFF ratio” value falls from 1.45 to 1.17.

Compared with U7C U8C U10C U11A C12A C13A, U7C U8C U10C C12A C13A is higher in “aptazyme ON/OFF ratio” value: 1.33 for the first, 1.6 for the second.

First: U7C U8C U10C C12A C13U
Second: U7C U8C U10C C12A C13G
The “aptazyme ON/OFF ratio” value of the first is higher: 1.35 for the first, 1.14 for the second.

Compared with U7C U8C G9U U10C U11A C12G C13G, U7C U8C G9U U10C U11A C12G C13U is lower in “aptazyme ON/OFF ratio” value: 1.15 for the first, 1.09 for the second.

First: U7C U8C G9U U10C U11A C12G C13A
Second: U7C U8C U10C U11C C12U C13A
The “aptazyme ON/OFF ratio” value of the first is lower: 1.13 for the first, 1.31 for the second.

Compared with U7C U8C U10C U11C C12U C13G, U7C U8C U10C U11C C12U C13U is higher in “aptazyme ON/OFF ratio” value: 1.15 for the first, 1.19 for the second.

Compared with U7C U8C U10A C12U, U7C U8C U10A C12G is lower in “aptazyme ON/OFF ratio” value: 1.12 for the first, 1.08 for the second.

Going from U7C U8C U10A C12A to U7C U8C U10A U11C C12U, the “aptazyme ON/OFF ratio” value falls from 1.06 to 1.05.

First: U7C U8C U10A U11C C12G
Second: U7C U8C U10A U11C C12A
The “aptazyme ON/OFF ratio” value of the first is lower: 1.26 for the first, 1.29 for the second.

Compared with U7C U8C G9U U10G C12G, U7C U8C G9U U10G C12U is higher in “aptazyme ON/OFF ratio” value: 1.15 for the first, 1.33 for the second.

Going from U7C U8C G9U U10G C12A to U7C U8C G9U U10C U11A C13A, the “aptazyme ON/OFF ratio” value falls from 1.22 to 1.2.

Going from U7C U8C G9U U10C U11A C13U to U7C U8C G9U U10C U11A C13G, the “aptazyme ON/OFF ratio” value falls from 1.23 to 1.14.

First: U7C U8C G9U U11C C12A C13G
Second: U7C U8C G9U U11C C12A C13U
The “aptazyme ON/OFF ratio” value of the first is lower: 1.04 for the first, 1.14 for the second.

Compared with U7C U8C G9U U11C C12A C13A, U7C U8C U10A U11A C13A is higher in “aptazyme ON/OFF ratio” value: 1.06 for the first, 1.26 for the second.

Going from U7C U8C U10A U11A C13G to U7C U8C U10A U11A C13U, the “aptazyme ON/OFF ratio” value rises from 1.14 to 1.29.

First: U7C U8C G9U U11C C12U C13A
Second: U7C U8C G9U U11C C12U C13U
The “aptazyme ON/OFF ratio” value of the first is higher: 1.03 for the first, 1.02 for the second.

Going from U7C U8C G9U U11C C12U C13G to U7C U8C G9U U11G C12G C13A, the “aptazyme ON/OFF ratio” value rises from 1.05 to 1.09.

First: U7C U8C G9U U11G C12G C13G
Second: U7C U8C G9U U11G C12G C13U
The “aptazyme ON/OFF ratio” value of the first is higher: 1.14 for the first, 1.05 for the second.

First: U7C U8C G9U U10G U11A C13U
Second: U7C U8C G9U U10G U11A C13A
The “aptazyme ON/OFF ratio” value of the first is lower: 1.17 for the first, 1.18 for the second.

Going from U7C U8C G9U U10G U11A C13G to U7C U8C G9U U10G U11A C12A C13G, the “aptazyme ON/OFF ratio” value falls from 1.1 to 1.08.

Going from U7C U8C G9U U10G U11A C12A C13A to U7C U8C G9U U10G U11A C12A C13U, the “aptazyme ON/OFF ratio” value falls from 1.2 to 1.17.

First: U7C U8C G9U U10G U11C C12G
Second: U7C U8C G9U U10G U11C C12A
The “aptazyme ON/OFF ratio” value of the first is higher: 1.24 for the first, 1.17 for the second.

Compared with U7C U8C G9U U10G U11C C12U, U7C U8C G9U U11A C12U C13A is lower in “aptazyme ON/OFF ratio” value: 1.25 for the first, 1.18 for the second.

First: U7C U8C G9U U11A C12U C13G
Second: U7C U8C G9U U11A C12U C13U
The “aptazyme ON/OFF ratio” value of the first is lower: 1.12 for the first, 1.2 for the second.
